B1: Barstar, P11540 (parent)
chain: MKKAVINGEQIRSISDLHQTLKKELALPEYYGENLDALWDCLTGWVEYPLVLEWRQFEQSKQLTENGAESVLQVFREAKAEGCDITIILS

Variants of: B1
Details: Bacillus amyloliquefaciens, pH 8, 25 °C, Urea, Fluorescence, Tris-HCl 30 mM, structure 1BTA, whole UniProt chain shown

Row | Variant | ddG of mutation (higher = less stable) (KCl 0.5 M) | denaturant m value (KCl 0.5 M) | unfolding free energy (KCl 0.5 M) | ddG of mutation (higher = less stable) (KCl 1.0 M) | denaturant m value (KCl 1.0 M) | unfolding free energy (KCl 1.0 M) | ddG of mutation (higher = less stable) | denaturant m value | unfolding free energy | ddG of mutation (higher = less stable) (KCl 1 M) | denaturant m value (KCl 1 M) | unfolding free energy (KCl 1 M) | ddG of mutation (higher = less stable) (KCl 0.5M) | denaturant m value (KCl 0.5M) | unfolding free energy (KCl 0.5M)
1 | MKKAVINGEQIRSISDLHQTLKQELALPEYYGENLDALWDCLTGWVEYPLVLEWRQFEQSKQLTENGAESVLQVFREAKAEGCDITIILS [K23Q] | 1.1 kcal/mol | 1.12 kcal/mol/M | 4.7 kcal/mol | 1.1 kcal/mol | 1.14 kcal/mol/M | 5.8 kcal/mol | 0.5 kcal/mol | 1.22 kcal/mol/M | 4.3 kcal/mol | – | – | – | – | – | –
2 | MKKAVINGEQIRSISDLHQTLQKELALPEYYGENLDALWDCLTGWVEYPLVLEWRQFEQSKQLTENGAESVLQVFREAKAEGCDITIILS [K22Q] | 1.2 kcal/mol | 1.18 kcal/mol/M | 4.6 kcal/mol | – | – | – | 0.7 kcal/mol | 1.32 kcal/mol/M | 4.1 kcal/mol | 1.2 kcal/mol | 1.12 kcal/mol/M | 5.7 kcal/mol | – | – | –
3 | MKKAVINGEQIRSISDLHQTLAKELALPEYYGENLDALWDCLTGWVEYPLVLEWRQFEQSKQLTENGAESVLQVFREAKAEGCDITIILS [K22A] | 0.8 kcal/mol | 1.1 kcal/mol/M | 5 kcal/mol | – | – | – | 1.4 kcal/mol | 1.02 kcal/mol/M | 3.4 kcal/mol | 0.8 kcal/mol | 1.11 kcal/mol/M | 6.1 kcal/mol | – | – | –
4 | MKKAVINGEQIRSISDLHQTLKKELALPEYYGENLDALWDCLTGWVEYPLVLEWRQFEQSKQLTENGAESVLQVFREAAAEGCDITIILS [K79A] | -0.2 kcal/mol | 1.18 kcal/mol/M | 6 kcal/mol | – | – | – | – | – | – | -0.1 kcal/mol | 1.16 kcal/mol/M | 7 kcal/mol | – | – | –
5 | MKKAVINGEQIRSISDLHQTLKKELALPEYYGENLDALWDCLTGWVEYPLVLEWRQFEQSKQLTENGAESVLQVFREAQAEGCDITIILS [K79Q] | -0.3 kcal/mol | 1.14 kcal/mol/M | 6.1 kcal/mol | – | – | – | -0.4 kcal/mol | 1.14 kcal/mol/M | 5.2 kcal/mol | -0.3 kcal/mol | 1.14 kcal/mol/M | 7.2 kcal/mol | – | – | –
6 | MKKAVINGEQIRSISDLHQTLKKELALPEYYGENLDALWDCLTGWVEYPLVLEWRQFKQSKQLTENGAESVLQVFREAKAEGCDITIILS [E58K] | 0.9 kcal/mol | 1.14 kcal/mol/M | 4.9 kcal/mol | 0.9 kcal/mol | 1.16 kcal/mol/M | 6 kcal/mol | 0.4 kcal/mol | 1.25 kcal/mol/M | 4.4 kcal/mol | – | – | – | – | – | –
7 | MKKAVINGEQIRSISDLHQTLKKELALPEYYGENLDALWDCLTGWVEYPLVLEWRQFEQSKQLTENGAESVLQVFLEAKAEGCDITIILS [R76L] | -0.7 kcal/mol | 1.13 kcal/mol/M | 6.5 kcal/mol | -0.7 kcal/mol | 1.15 kcal/mol/M | 7.6 kcal/mol | -0.7 kcal/mol | 1.13 kcal/mol/M | 5.5 kcal/mol | – | – | – | – | – | –
8 | MKKAVINGEQIRSISDLHQTLKKELALPEYYGENLDALWDCLTGWVEYPLVLEWRQFEQSKQLTENGAESVLQVFQEAKAEGCDITIILS [R76Q] | – | – | – | – | – | – | – | – | – | 0.4 kcal/mol | 1.17 kcal/mol/M | 6.5 kcal/mol | 0.4 kcal/mol | 1.15 kcal/mol/M | 5.4 kcal/mol
9 | MKKAVINGEQIRSISDLHQTLKKELALPEYYGENLDALWDCLTGWVEYPLVLEWRQFEQSLQLTENGAESVLQVFREAKAEGCDITIILS [K61L] | -0.4 kcal/mol | 1.17 kcal/mol/M | 6.2 kcal/mol | -0.4 kcal/mol | 1.16 kcal/mol/M | 7.3 kcal/mol | -1 kcal/mol | 1.3 kcal/mol/M | 5.8 kcal/mol | – | – | – | – | – | –
10 | MKKAVINGEQIRSISDLHQTLKKELALPEYYGENLDALWDCLTGWVEYPLVLEWRQFEQSEQLTENGAESVLQVFREAKAEGCDITIILS [K61E] | 1.3 kcal/mol | 1.19 kcal/mol/M | 4.5 kcal/mol | 1.4 kcal/mol | 1.13 kcal/mol/M | 5.5 kcal/mol | 0.6 kcal/mol | 1.44 kcal/mol/M | 4.2 kcal/mol | – | – | – | – | – | –
